A short description of data set [1]: PAGE NIR of SNAP-labelled HEK293 lysate. The following applies: glycan lost; control: WT SNAP-α1D.
Data set [2] in a line: sucrose density gradient fractionation, PAGE NIR. Particulars: glycan lost; control: WT SNAP-α1D.
A short description of data set [3]: confocal colocalisation with ER stain CytoPainter. Particulars: glycan lost; control: WT SNAP-α1D.
Data set [4] in a line: cell-impermeable SNAP substrate BG-782 surface labelling. The following applies: glycan lost; control: WT SNAP-α1D.
A short description of data set [5]: SNAP-Capture pull-down, MS/MS peptide coverage. Particulars: glycan lost; control: WT SNAP-α1D.
The nature of data set [6]: PAGE NIR after 16 hr tunicamycin. The following applies: glycan lost; control: EtOH vehicle.
A short description of data set [7]: dual SNAP/CLIP tag PAGE NIR. The following applies: glycan lost; control: S-WT-C.

B1: α1D-adrenergic receptor (α1D-AR): N65Q (protein)
parent chain: MTFRDLLSVSFEGPRPDSSAGGSSAGGGGGSAGGAAPSEGPAVGGVPGGAGGGGGVVGAGSGEDNRSSAGEPGSAGAGGDVNGTAAVGGLVVSAQGVGVGVFLAAFILMAVAGNLLVILSVACNRHLQTVTNYFIVNLAVADLLLSATVLPFSATMEVLGFWAFGRAFCDVWAAVDVLCCTASILSLCTISVDRYVGVRHSLKYPAIMTERKAAAILALLWVVALVVSVGPLLGWKEPVPPDERFCGITEEAGYAVFSSVCSFYLPMAVIVVMYCRVYVVARSTTRSLEAGVKRERGKASEVVLRIHCRGAATGADGAHGMRSAKGHTFRSSLSVRLLKFSREKKAAKTLAIVVGVFVLCWFPFFFVLPLGSLFPQLKPSEGVFKVIFWLGYFNSCVNPLIYPCSSREFKRAFLRLLRCQCRRRRRRRPLWRVYGHHWRASTSGLRQDCAPSSGDAPPGAPLALTALPDPDPEPPGTPEMQAPVASRRKPPSAFREWRLLGPFRRPTTQLRAKVSSLSHKIRAGGAQRAEAACAQRSEVEAVSLGVPHEVAEGATCQAYELADYSNLRETDI
B1: in data set [1], the “other: full-length receptor biogenesis” value is recorded as “no change”. Further, the “localisation_or_trafficking, other: % total AUC in low-density (ER) peak” value in data set [2] was “changes, 46.33 vs 92.47”. In addition, in data set [3], the “localisation_or_trafficking, other: Pearson's coefficient” value was “no change, 0.70 ± 0.04 vs 0.72 ± 0.03”. Moreover, in data set [4], the “localisation_or_trafficking, other: % change from SNAP alone” value is on record as “decreases, 13.40 ± 4.65 vs 46.13 ± 5.61”.

B2: α1D-adrenergic receptor (α1D-AR): NQQ (protein)
parent chain: B1 parent chain
For B2, the “other: full-length receptor biogenesis” value in data set [1] is “abolishes, primarily expressed as a single, robust band of ~43 kDa in size”; in data set [5] it was “abolishes”.

B3: α1D-adrenergic receptor (α1D-AR): tunicamycin 5 μg/mL (protein)
parent chain: B1 parent chain
Consider B3, for which, in data set [6], the “other: full-length receptor biogenesis” value was “changes”.

B4: α1D-adrenergic receptor (α1D-AR): S-NQQ-C (protein)
parent chain: B1 parent chain
Consider B4, for which the “other: full-length receptor biogenesis” value in data set [7] is “abolishes”.

B5: α1D-adrenergic receptor (α1D-AR): N82Q (protein)
parent chain: B1 parent chain
As for B5, the “other: full-length receptor biogenesis” value in data set [1] was “no change”. The “localisation_or_trafficking, other: % total AUC in low-density (ER) peak” value in data set [2] is on record as “no change, 89.13 vs 92.47”. In addition, the “localisation_or_trafficking, other: % change from SNAP alone” value in data set [4] was “decreases, 9.49 ± 5.95 vs 46.13 ± 5.61”.

For the origin of these results see PMC7190626.
